The term Kd denotes the constant that tells how readily two partners part at equilibrium. A lower Kd goes with tighter binding.

Data set [1] has as its target T1, SSB (single-stranded DNA-binding protein) (UniProt P0AGE0 P0AGE0:2-178). The data set can be described thus: NECEEM run buffer 25 mM tetraborate pH 9.4 with 100 nM SSB; fully double-stranded, not bound. Conditions: chain copies: 4; label: 5'-fluorescein on DNA-1; duplex without single-stranded overhang.
Data set [2] deals with T1, SSB (single-stranded DNA-binding …). As to the kind of experiment: NECEEM; 25 mM tetraborate pH 9.4, incubated at room temperature; koff 3.3e-2 s-1, kon 1.2e5 M-1 s-1. Conditions: chain copies: 4; label: 5'-fluorescein. As for the experimental part:
SSB and a fluorescently-labeled 15-mer ssDNA oligonucleotide, 5′-fluorescein-[…] ([…]) were used in this example (Berezovski and Krylov J. Amer. Chem. Soc. 2002, 124, 13674). NECEEM separation of protein-DNA complexes was performed using a laboratory-built CE instrument with fluorescence detector described in detail elsewhere (Wu and Dovichi J. Chromatogr. 1989, 480, 141). A 488 nm line of an Argon-ion laser was utilized to excite the fluorescence of the DNA. Uncoated fused silica capillaries of 40 cm×20 μm I.D.×150 μm O.D. were used. The electrophoresis was run with a positive electrode at the injection end biased at +24 kV. The run buffer for NECEEM was 25.0 mM tetraborate at pH 9.4. The samples were injected into the capillary by a pressure pulse of 1 s×9.1 kPa; the length of corresponding sample plug was 0.93 mm as was calculated using the Poiseulle equation (Krylov et al. Anal. Chem. 2000, 72, 872). The capillary was rinsed with the run buffer solution for 2 minutes prior to each run. At the end of each run, the capillary was rinsed with 100 mM NaOH for 2 minutes, followed by a rinse with deionized water for 2 minutes.
Equilibrium mixtures of SSB, fDNA and SSB•fDNA complex were prepared by mixing solutions of 16 μM SSB and 205 nM fDNA in the run buffer at a desired volume ratio and incubating them at room temperature to reach equilibrium prior to the analysis. […]

Data set [3] has the same target. The data set can be described thus: NECEEM run buffer 25 mM tetraborate pH 9.4 with 100 nM SSB; binds via single-stranded overhang. The note with it: chain copies: 4; label: 5'-fluorescein on DNA-1; duplex with 10-nt single-stranded overhang.

T1 sequence (P0AGE0 2-178, one chain of several): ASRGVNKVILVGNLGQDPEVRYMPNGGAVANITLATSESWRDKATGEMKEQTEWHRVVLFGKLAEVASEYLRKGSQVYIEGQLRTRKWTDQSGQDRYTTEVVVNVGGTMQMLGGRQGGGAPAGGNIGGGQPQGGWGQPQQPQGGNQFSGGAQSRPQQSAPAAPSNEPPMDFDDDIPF

B1: DNA-1/DNA-3/DNA-2 hybrid (dsDNA)
DNA 1: GCGGAGCGTGGCAGG
DNA 2: CCTGCCACGCTCCGCTCTAAAAATAA
DNA 3: TTATTTTTAG
Consider B1, for which the binding result in data set [1] was “no binding”.

B2: fDNA 15-mer (DNA-1) (ssDNA)
DNA: GCGGAGCGTGGCAGG
B2: in data set [2], the Kd was 280 nM. This lies in the sub-micromolar range.

B3: DNA-1/DNA-3 hybrid (mixed)
DNA 1: GCGGAGCGTGGCAGG
DNA 2: CCTGCCACGCTCCGCTCTAAAAATAA
As to B3, the binding result in data set [3] is “binds”.

(Values after US20100243450, “NON-EQUILIBRIUM CAPILLARY ELECTROPHORESIS OF EQUILIBRIUM MIXTURES (NECEEM)-BASED METHODS FOR DRUG AND DIAGNOSTIC DEVELOPMENT” (published 2010).)
